Data on six substances can be found in patent publication US20200024330A1.

Usually IC50 stands for the point on the concentration scale where inhibition reaches its midpoint. As usually defined, the IC80 is the concentration needed for an effect of 80%. Higher therefore signals a need for much substance. As usually defined, the IC90 is the point of the concentration-response curve where the effect stands at 90%. Higher therefore signals weaker potency. In general, IC95 refers to the point of the concentration-response curve where the effect stands at 95%. Higher therefore signals weaker potency.

Common to all, as to assay: cell-based or functional assay
Assay [1] concerns the target HIV-1 Env of isolate MGRM-Chronic-B-011 (HIV-1).
Assay [2] deals with HIV-1 Env of isolate MGRM-Chronic-B-024 (HIV-1).
Assay [3] has as its target HIV-1 Env of isolate MGRM-AG-005 (HIV-1).
The target in assay [4] is HIV-1 Env of isolate MGRM-Chronic-B-010 (HIV-1).
For assay [5], the target named is HIV-1 Env of isolate MGRM-Chronic-B-018 (HIV-1).
Assay [6] concerns the target HIV-1 Env of isolate MGRM-G-009 (HIV-1).
Assay [7] deals with HIV-1 Env of isolate MGRM-AG-006 (HIV-1).
The target in assay [8] is HIV-1 Env of isolate MGRM-AG-001 (HIV-1).
In assay [9] the target is HIV-1 Env of isolate MGRM-G-004 (HIV-1).
Assay [10] concerns the target HIV-1 Env of isolate MGRM-AE-006 (HIV-1).
Assay [11] concerns the target HIV-1 92UG005 envelope glycoprotein (Env) on pseudovirus (HIV-1).
Assay [12] deals with HIV-1 NL43 envelope glycoprotein (Env) on pseudovirus (HIV-1).
The target in assay [13] is HIV-1 Env of isolate MGRM-Chronic-B-020 (HIV-1).
The target of assay [14] is HIV-1 Env of isolate MGRM-AE-005 (HIV-1).
Assay [15] addresses HIV-1 92TH021 envelope glycoprotein (Env) on pseudovirus (HIV-1).
Assay [16] concerns the target HIV-1 Env of isolate MGRM-AG-012 (HIV-1).
The target in assay [17] is HIV-1 Env of isolate MGRM-AE-001 (HIV-1).
Assay [18] addresses aMLV envelope (negative control pseudovirus).
The target of assay [19] is HIV-1 MGRM-F1-006 Env (pseudovirus) (HIV-1).
For assay [20], the target named is HIV-1 Env of isolate MGRM-AE-007 (HIV-1).
Assay [21] concerns the target HIV-1 92BR020 envelope glycoprotein (Env) on pseudovirus (HIV-1).
Assay [22] concerns the target HIV-1 Env of isolate MGRM-G-001 (HIV-1).
For assay [23], the target named is HIV-1 Env of isolate MGRM-AE-008 (HIV-1).
Assay [24] deals with HIV-1 Env of isolate MGRM-AG-011 (HIV-1).
Assay [25] addresses HIV-1 Env of isolate MGRM-AG-003 (HIV-1).
Assay [26] deals with HIV-1 Env of isolate MGRM-Chronic-B-023 (HIV-1).
Assay [27] has as its target HIV-1 92RW020 envelope glycoprotein (Env) on pseudovirus (HIV-1).
Assay [28] concerns the target HIV-1 Env of isolate MGRM-G-006 (HIV-1).
The target of assay [29] is HIV-1 Env of isolate MGRM-AG-009 (HIV-1).
For assay [30], the target named is HIV-1 Env of isolate MGRM-AG-013 (HIV-1).
Assay [31] concerns the target HIV-1 Env of isolate MGRM-Chronic-B-017 (HIV-1).
Assay [32] has as its target HIV-1 92UG024 envelope glycoprotein (Env) on pseudovirus (HIV-1).
The target of assay [33] is HIV-1 Env of isolate MGRM-AG-002 (HIV-1).
In assay [34] the target is HIV-1 Env of isolate MGRM-AE-004 (HIV-1).
For assay [35], the target named is HIV-1 Env of isolate MGRM-Chronic-B-012 (HIV-1).
Assay [36] has as its target HIV-1 Env of isolate JRFL (HIV-1).
The target of assay [37] is HIV-1 Env of isolate MGRM-AG-008 (HIV-1).
The target of assay [38] is HIV-1 Env of isolate MGRM-G-016 (HIV-1).
Assay [39] addresses HIV-1 Env of isolate MGRM-G-014 (HIV-1).
Assay [40] addresses HIV-1 Env of isolate MGRM-G-015 (HIV-1).
Assay [41] addresses HIV-1 Env of isolate MGRM-G-013 (HIV-1).
Assay [42] concerns the target HIV-1 Env of isolate MGRM-F1-021 (HIV-1).
Assay [43] concerns the target HIV-1 Env of isolate MGRM-G-019 (HIV-1).
The target of assay [44] is HIV-1 Env of isolate MGRM-G-027 (HIV-1).
In assay [45] the target is HIV-1 Env of isolate MGRM-G-017 (HIV-1).
Assay [46] has as its target HIV-1 Env of isolate MGRM-G-011 (HIV-1).
In assay [47] the target is HIV-1 Env of isolate MGRM-D-003 (HIV-1).

As to 2F5 (antibody), the IC50 (µg/ml), pseudovirus neutralization was 0.81 µg/mL in assay [1]; more than 50 µg/mL in assay [2]; more than 50 µg/mL in assay [3]; 0.96 µg/mL in [4]; 10.8 µg/mL in [5]; 7.21 µg/mL in assay [6]. Further, the IC50 (µg/ml), pseudovirus neutralization is 0.85 µg/mL in [7]; 0.75 µg/mL in assay [8]; more than 50 µg/mL in assay [9]; 0.18 µg/mL in [10]; 0.78 µg/mL in assay [13]; 0.14 µg/mL in assay [14]. The IC50 (µg/ml), pseudovirus neutralization in [16] is 0.33 µg/mL; in assay [17], 0.29 µg/mL; in [18], more than 50 µg/mL; in assay [19] it was 1.1 µg/mL; in [20], 0.07 µg/mL; in assay [22] it was 4.1 µg/mL. Also, the IC50 (µg/ml), pseudovirus neutralization was more than 50 µg/mL in assay [23]; more than 50 µg/mL in [24]; 0.14 µg/mL in assay [25]; 0.1 µg/mL in assay [26]; 1.33 µg/mL in assay [28]; 24.8 µg/mL in assay [29]. Also, the IC50 (µg/ml), pseudovirus neutralization is 1.79 µg/mL in [30]; more than 50 µg/mL in assay [31]; 0.54 µg/mL in assay [33]; 0.98 µg/mL in assay [34]; 17.6 µg/mL in [35]; 3.54 µg/mL in assay [36]. Further, in [37], the IC50 (µg/ml), pseudovirus neutralization is 0.54 µg/mL. Besides, the IC90 (pseudovirus neutralization) in assay [11] is more than 50 µg/mL; in [12], 19.3 µg/mL; in [15], 18.8 µg/mL; in assay [21], more than 50 µg/mL; in [27], 27.7 µg/mL; in [32] it was 34.4 µg/mL.

1495_C14 (PGC14) (antibody): the IC50 (µg/ml), pseudovirus neutralization is more than 50 µg/mL in assay [1]; more than 50 µg/mL in assay [2]; more than 50 µg/mL in assay [3]; 27 µg/mL in assay [4]; more than 50 µg/mL in [5]; more than 50 µg/mL in assay [6]. Further, the IC50 (µg/ml), pseudovirus neutralization in assay [7], in assay [8], in assay [9], in assay [10], in assay [13] and in assay [14] was more than 50 µg/mL in each case. The IC50 (µg/ml), pseudovirus neutralization in assay [16], in assay [17], in [18], in assay [19], in assay [20] and in assay [22] was more than 50 µg/mL throughout. Moreover, the IC50 (µg/ml), pseudovirus neutralization in assay [23], in [24], in assay [25], in [26], in [28] and in assay [29] was more than 50 µg/mL each time. Further, the IC50 (µg/ml), pseudovirus neutralization in assay [30], in assay [31], in assay [33], in [34], in assay [35] and in [36] was more than 50 µg/mL throughout. The substance further registered an IC50 (µg/ml), pseudovirus neutralization in assay [37] of 45 µg/mL.

With 5141_B17 (PGT-126) (antibody), the IC50, pseudovirus neutralization in [38] was more than 50 µg/mL; in [39] it was 0.009 µg/mL; in assay [40], more than 50 µg/mL; in [6], more than 50 µg/mL; in [41] it was 48.8 µg/mL; in assay [9], more than 50 µg/mL. Further, the IC50, pseudovirus neutralization in assay [18] is more than 50 µg/mL; in assay [22] it was 0.038 µg/mL; in assay [43], 0.018 µg/mL; in [44] it was 0.875 µg/mL; in [28], more than 50 µg/mL; in assay [45] it was more than 50 µg/mL. Also, in assay [46], the IC50, pseudovirus neutralization is 7.32 µg/mL. Moreover, the IC50 in assay [42] is more than 50 µg/mL; in assay [18], more than 10 µg/mL. The neutralization IC50 in [10] is 17.3 µg/mL; in assay [14] it was 0.324 µg/mL; in assay [20], more than 50 µg/mL; in assay [23], more than 50 µg/mL; in assay [34] it was more than 50 µg/mL. For the same substance, the IC50 (ug/ml), neutralizing activity in assay [11] is 0.0181 µg/mL; in [12], more than 10 µg/mL; in assay [15], 0.115 µg/mL; in [21], 0.0163 µg/mL; in [27], 0.0046 µg/mL; in assay [32], more than 10 µg/mL. The IC80 in assay [18] was more than 10 µg/mL. The substance further showed an IC90 in assay [18] of more than 10 µg/mL. The substance also displayed an IC95 in assay [18] of more than 10 µg/mL.

Regarding PGT-121 (antibody), the IC50 (µg/mL), pseudovirus neutralization in assay [17] was more than 50 µg/mL.

In the case of PGT-122 (antibody), in assay [17], the IC50 (µg/mL), pseudovirus neutralization is more than 50 µg/mL.

For the substance PGV04 (antibody), the IC50 (µg/mL), pseudovirus neutralization was 0.027 µg/mL in [3]; 1.23 µg/mL in [7]; 0.218 µg/mL in assay [8]; more than 50 µg/mL in assay [10]; 0.051 µg/mL in assay [14]; 0.04 µg/mL in assay [16]. For the same substance, the IC50 (µg/mL), pseudovirus neutralization in assay [17] is 0.063 µg/mL; in assay [20], 5.75 µg/mL; in assay [47] it was more than 50 µg/mL; in [23] it was 1.51 µg/mL; in assay [24], 0.071 µg/mL; in assay [25], 0.058 µg/mL. Also, the IC50 (µg/mL), pseudovirus neutralization is 0.148 µg/mL in assay [29]; 0.03 µg/mL in assay [30]; 0.879 µg/mL in [33]; 0.183 µg/mL in assay [34]; 2.48 µg/mL in [37]. The neutralization IC50 in [18] is more than 50 µg/mL.
